Substitutions are numbered along the chain they refer to.
B1: Fab 0012-LC-HPC4; VH-CH1 (Fab)
heavy: EVKLLESGGGLVQPGGSLKLSCAASGFDFSRYWMTWVRQAPGKGLEWIGEINPDSSTINYTPSLKDKFIISRDNAKNTLYLQMSEVRSEDTALYYCASGVFTSWGQGTLVTVSAASTKGPSVFPLAPCSRSTSESTAALGCLVKDYFPEPVTVSWNSGALTSGVHTFPAVLQSSGLYSLSSVVTVPSSSLGTKTYTCNVDHKPSNTKVDKRVESK
light: DVVMTQTPLSLPVSLGDQASISCRSSQSLVHRNGNTYFHWCLQKPGQSPKLLIYKVSNRFSGVPDRFSGSGSGTDFTLKISRVEAEDLGVYFCSQSTHVPYTFGGGTKLEIKRTVAAPSVFIFPPSDEQLKSGTASVVCLLNNFYPREAKVQWKVDNALQSGNSQESVTEQDSKDSTYSLSSTLTLSKADYEKHKVYACEVTHQGLSSPVTKSFNRGECEDQVDPRLIDGK
notes: Anti-TLT-1 Fab without tissue factor; also called 0010; 0010 Fab
B2: TLT1 (human TLT-1, reagent of the SPR studies, source NN) (receptor)
chain: QGIVGSLPEVLQAPVGSSILVQCHYRLQDVKAQKVWCRFLPEGCQPLVSSAVDRRAPAGRRTFLTDLGGGLLQVEMVTLQEEDAGEYGCMVDGARGPQILHRVSLNILPPEEEEETHKIGSLAENAFSDPAGSANPLEPSQDEKSIP
B3: mAb 0051 HC2; LC2 (antibody, V domains shown)
VH: QVQLEQSGAELVRPGVSVKISCKGSGYTFTDYSMHWVKQSHAKSLEWIGVISTYYGDVRYNQKFKGKATMTVDKSSSTAYMALARLTSEDSAIYYCARAPMITTGAWFAYWGQGTLVTVSA
VL: SIVMTQTPKFLLVSAGDRVTITCKASQSVSNDVAWYQQKPGQSPKLLINYASSRYTGIPDRFTGSGYGTDFTFTISTVQAEDLAVYFCQQDYSSPYTFGGGTKLEIER
notes: also called 0197-0000-0051

Tests used:
[1] = target: T1, TLT-1 receptor on the surface of activated human platelets (human, UniProt Q86YW5 16-311); assay: flow cytometry on activated human platelets, detection: anti HPC4 tag ab.
T1 sequence: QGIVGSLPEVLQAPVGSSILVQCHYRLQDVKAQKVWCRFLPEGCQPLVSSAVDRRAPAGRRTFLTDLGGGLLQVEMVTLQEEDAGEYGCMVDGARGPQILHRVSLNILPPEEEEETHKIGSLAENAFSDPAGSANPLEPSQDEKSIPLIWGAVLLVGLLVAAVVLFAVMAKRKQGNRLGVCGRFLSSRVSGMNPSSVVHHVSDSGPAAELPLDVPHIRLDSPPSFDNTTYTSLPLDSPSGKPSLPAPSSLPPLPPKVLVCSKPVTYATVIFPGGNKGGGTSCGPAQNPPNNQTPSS

[2] = target: T2, human fibrinogen (HCI-0150R, Haematologic Technologies) (human, UniProt P02671 20-629; P02675 31-491; P02679 27-437, limits assumed); assay: SPR (Biacore T100), TLT1 immobilised on CM5, fibrinogen as analyte
T2 construct: Chain composition is general knowledge
T2 sequence (looked up) 1: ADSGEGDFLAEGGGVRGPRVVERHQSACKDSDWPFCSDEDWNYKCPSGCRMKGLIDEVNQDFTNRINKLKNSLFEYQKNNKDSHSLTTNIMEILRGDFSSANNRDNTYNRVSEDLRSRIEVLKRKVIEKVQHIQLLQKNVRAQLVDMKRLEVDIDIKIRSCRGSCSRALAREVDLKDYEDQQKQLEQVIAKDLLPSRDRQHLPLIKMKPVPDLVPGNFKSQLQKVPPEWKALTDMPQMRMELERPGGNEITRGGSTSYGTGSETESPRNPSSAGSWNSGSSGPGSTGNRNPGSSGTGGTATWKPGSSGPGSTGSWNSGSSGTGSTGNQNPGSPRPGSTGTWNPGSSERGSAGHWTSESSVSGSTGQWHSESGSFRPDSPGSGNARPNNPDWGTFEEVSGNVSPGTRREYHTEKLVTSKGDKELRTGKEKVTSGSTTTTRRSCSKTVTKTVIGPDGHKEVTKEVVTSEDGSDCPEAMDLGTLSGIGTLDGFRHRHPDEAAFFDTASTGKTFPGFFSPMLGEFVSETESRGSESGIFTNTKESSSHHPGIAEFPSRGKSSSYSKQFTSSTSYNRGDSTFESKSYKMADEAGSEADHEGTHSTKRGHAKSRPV
T2 sequence (looked up) 2: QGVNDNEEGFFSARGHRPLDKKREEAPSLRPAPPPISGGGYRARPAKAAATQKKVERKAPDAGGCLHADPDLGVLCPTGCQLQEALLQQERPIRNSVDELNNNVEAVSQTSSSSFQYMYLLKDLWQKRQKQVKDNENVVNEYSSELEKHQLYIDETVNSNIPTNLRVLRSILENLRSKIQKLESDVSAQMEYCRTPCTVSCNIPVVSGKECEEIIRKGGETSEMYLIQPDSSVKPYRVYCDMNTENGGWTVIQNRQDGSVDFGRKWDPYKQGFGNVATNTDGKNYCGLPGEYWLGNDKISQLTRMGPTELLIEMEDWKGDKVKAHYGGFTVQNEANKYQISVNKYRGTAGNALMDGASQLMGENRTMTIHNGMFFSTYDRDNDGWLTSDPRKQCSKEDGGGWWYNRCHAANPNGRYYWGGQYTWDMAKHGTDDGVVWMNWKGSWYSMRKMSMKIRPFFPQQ
T2 sequence (looked up) 3: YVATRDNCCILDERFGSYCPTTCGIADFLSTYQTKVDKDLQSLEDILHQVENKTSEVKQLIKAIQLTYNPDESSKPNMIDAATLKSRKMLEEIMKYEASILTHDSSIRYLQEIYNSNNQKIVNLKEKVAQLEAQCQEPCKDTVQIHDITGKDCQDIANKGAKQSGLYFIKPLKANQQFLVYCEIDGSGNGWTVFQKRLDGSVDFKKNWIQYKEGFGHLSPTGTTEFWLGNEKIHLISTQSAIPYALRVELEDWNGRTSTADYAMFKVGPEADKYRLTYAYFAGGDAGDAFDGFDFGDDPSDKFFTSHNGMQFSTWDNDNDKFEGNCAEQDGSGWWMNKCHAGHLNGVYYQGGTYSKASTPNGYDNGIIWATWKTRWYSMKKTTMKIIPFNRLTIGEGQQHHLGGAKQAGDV
Description: (§1) Human TLT1 was immobilised to a level of approx 1000 RU on a CM5 chip (50 μg/ml diluted in Na-acetate, pH 4.0) using the standard procedure recommended by the supplier. Four-fold dilutions of human fibrinogen from 200 nM to 0.2 nM were tested for binding to the immobilized TLT1. Running and dilution buffer: 10 mM HEPES, 150 mM, 0.005% p20, pH 7.4. Regeneration was obtained by 10 mM Glycine, pH 1.7. Determination of kinetic and binding constants (kₒₙ, koff, KD) was obtained assuming a 1:1 interaction of TLT1 and fibrinogen using the Biacore T100 evaluation software.

[3] = target: T2, human fibrinogen (HCI-0150R, …); assay: SPR (Biacore T100), TLT1 immobilised on CM5, fibrinogen 200 nM to 0.2 nM as analyte
Description: as §1

[4] = target: B2; assay: SPR (Biacore), mAb immobilised directly on CM5, TLT1 as analyte
Description: The mAbs of interest were either immobilized directly to a CM5 chip or by capture via a human Fc capture mAb immobilized to a CM5 chip.
Direct capture: The TLT-1 mAbs were immobilised to a level of approx 500-1000 RU on a CM5 chip (50 μg/ml diluted in Na-acetate, pH 4.0) using the standard procedure recommended by the supplier. Two-fold dilutions of TLT1 from 200 nM to 0.2 nM were tested for binding to the mABs. Running and dilution buffer: 10 mM HEPES, 150 mM, 0.005% p20, pH 7.4. Regeneration was obtained by 10 mM Glycine, pH 1.7.

hTLT-1 ECD-HPC4 F54A = target: T3, hTLT-1 ECD-HPC4 F54A (human, UniProt Q86YW5 16-162); assay: SPR (ProteOn), mAb captured by anti-hFc, 100 nM mutant, signal 10 s after injection normalised to captured mAb
T3 construct: As m27; also called Ala mutant 12
T3 chain: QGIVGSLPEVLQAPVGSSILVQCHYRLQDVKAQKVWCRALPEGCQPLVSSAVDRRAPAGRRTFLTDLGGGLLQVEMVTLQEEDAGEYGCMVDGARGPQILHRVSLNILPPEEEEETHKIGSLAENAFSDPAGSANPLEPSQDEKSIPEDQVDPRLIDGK
Description: (§2) Each anti-body was diluted in 10 mM sodium acetate pH 5.0 to a concentration of […], and was immobilized to an individual flow cell at 30 μl/min for 240s. The antibodies were immobilized to flow cells A1-A6 (horizontal direction). After immobilization, the active sites on the flow cell were blocked with 1 M ethanolamine. The final immobilization level of capture antibody typically ranged from approximately 9,000 to 10,000 RU in one experiment. Capture of the anti-TLT1 antibodies 0197-0000-0023, 0197-0000-0051, 0197-0000-0061 and 0197-0000-0062 was conducted by diluting to […] into HBS-EP buffer (10 mM HEPES, 150 mM NaCl, 3 mM EDTA, 0.05% surfactant P20, pH 7.4) and injected at 30 μl/min for 60s in vertical direction, creating interspot reference points with only anti-human Fc antibodies. The final capture level of test antibodies typically ranged from approximately 200 to 300 RU in one experiment. Binding of wt or Ala mutant hTLT-1 ECD-HPC4 protein was conducted by injecting over parallel flow cells in horizontal direction to allow for comparative analyses of binding to different captured anti-TLT1 antibodies relative to binding to the interspot references. Each hTLT-1 ECD-HPC4 protein was diluted to 100 nM, based on the calculated average Mw, into HBS-EP buffer and injected at 30 μl/min for 240s. The GLM chip was regenerated after each injection cycle of analyte via one 18 s injection of 1 M Formic acid followed by a 18s injection of 50 mM NaOH at 100 μl/min. This regeneration step removed the anti-TLT1 antibody and any bound TLT1 from the immobilized capture antibody surface, and allowed for the subsequent binding of the next test sample pair.
(§3) Data analysis was performed using the ProteOn Manager™ Software. No significant non-specific binding to the interspot control surfaces was observed. Binding curves were processed by double referencing (subtraction of interspot control surface signals as well as blank buffer injections over captured anti-TLT1 antibodies). This allowed correction for instrument noise, bulk shift and drift during sample injections. Binding signal at 10 s after stop of analyte injection was normalized to level of captured anti-TLT1 antibody and presented as binding relative to wt hTLT-1 ECD-HPC4 protein.

hTLT-1 ECD-HPC4 R117A = target: T4, hTLT-1 ECD-HPC4 R117A (human, UniProt Q86YW5 16-162); assay: as above
T4 construct: As m27; also called Ala mutant 32
T4 chain: T3 chain with A39F, R102A
Description: as §2, §3

hTLT-1 ECD-HPC4 S119A = target: T5, hTLT-1 ECD-HPC4 S119A (human, UniProt Q86YW5 16-162); assay: as above
T5 construct: As m27; also called Ala mutant 33
T5 chain: T3 chain with A39F, S104A
Description: as §2, §3

hTLT-1 ECD-HPC4 M91A = target: T6, hTLT-1 ECD-HPC4 M91A (human, UniProt Q86YW5 16-162); assay: as above
T6 construct: As m27; also called Ala mutant 24
T6 chain: T3 chain with A39F, M76A
Description: as §2, §3

B1
binding result [1]: binds

B2
Kd [2]: 94 nM | koff [2]: 0.000392 s⁻¹ | kon [3]: 4170 M⁻¹ s⁻¹

B3
Kd [4]: 19.3 nM | koff [4]: 0.00472 s⁻¹ | kon [4]: 245000 M⁻¹ s⁻¹ | binding relative to wt hTLT-1 ECD-HPC4 (hTLT-1 ECD-HPC4 F54A): < 0.4 fraction of wt binding | binding relative to wt hTLT-1 ECD-HPC4 (hTLT-1 ECD-HPC4 R117A): < 0.2 fraction of wt binding | binding relative to wt hTLT-1 ECD-HPC4 (hTLT-1 ECD-HPC4 S119A): < 0.6 fraction of wt binding | binding relative to wt hTLT-1 ECD-HPC4 (hTLT-1 ECD-HPC4 M91A): < 0.2 fraction of wt binding
